± gives the uncertainty stated by the source.
B1: Intersectin-1, residues 909 to 971; numbered along this chain, Q15811 (parent)
chain: QGEKVEGLQAQALYPWRAKKDNHLNFNKNDVITVLEQQDMWWFGEVQGQKGWFPKSYVKLISG

Variants of: B1
Test: abundance fitness (aPCA) (normalised: wild type 0, dead -1); higher = more abundant; growth selection in yeast, the domain comes from the species named
Conditions: Homo sapiens

Row | Variant | abundance fitness
1 | QGEKVEGLQAQALYPWRAKKDNHLNFNKNDVITVLEQQDMWWFGEVQGQKGWLPKSYVKLISG [F53L] | -0.701 ± 0.13
2 | QGEKVEGLQAQALYPWRAKKDNHLNFNKNDVITVLEQQDMWWFGEVQGQKGWSPKSYVKLISG [F53S] | -0.932 ± 0.18
3 | QGEKVEGLQAQALYPWRAKKDNHLNFNKNDVITVLEQQDMWWFGEVQGQKGWHPKSYVKLISG [F53H] | -0.709 ± 0.49
4 | QGEKVEGLQAQALYPWRAKKDNHLNFNKNDVITVLEQQDMWWFGEVQGQKGWEPKSYVKLISG [F53E] | -0.858 ± 0.46
5 | QGEKVEGLQAQALYPWRAKKDNHLNFNKNDVITVLEQQDMWWFGEVQGQKGWVPKSYVKLISG [F53V] | -0.677 ± 0.29
6 | QGEKVEGLQAQALYPWRAKKDNHLNFNKNDVITVLEQQDMWWFGEVQGQKGWGPKSYVKLISG [F53G] | -0.569 ± 0.29
7 | QGEKVEGLQAQALYPWRAKKDNHLNFNKNDVITVLEQQDMWWFGEVQGQKGWWPKSYVKLISG [F53W] | -0.798 ± 0.18
8 | QGEKVEGLQAQALYPWRAKKDNHLNFNKNDVITVLEQQDMWWFGEVQGQKGWMPKSYVKLISG [F53M] | -0.543 ± 0.47
9 | QGEKVEGLQAQALYPWRAKKDNHLNFNKNDVITVLEQQDMWWFGEVQGQKGWRPKSYVKLISG [F53R] | -0.951 ± 0.23
10 | QGEKVEGLQAQALYPWRAKKDNHLNFNKNDVITVLEQQDMWWFGEVQGQKGWQPKSYVKLISG [F53Q] | -1.03 ± 0.42
11 | QGEKVEGLQAQALYPWRAKKDNHLNFNKNDVITVLEQQDMWWFGEVQGQKGWKPKSYVKLISG [F53K] | -0.962 ± 0.41
12 | QGEKVEGLQAQALYPWRAKKDNHLNFNKNDVITVLEQQDMWWFGEVQGQKGWYPKSYVKLISG [F53Y] | -0.666 ± 0.42
13 | QGEKVEGLQAQALYPWRAKKDNHLNFNKNDVITVLEQQDMWWFGEVQGQKRWFPKSYVKLISG [G51R] | -0.89 ± 0.26
14 | QGEKVEGLQAQALYPWRAKKDNHLNFNKNDVITVLEQQDMWWFGEVQGQKVWFPKSYVKLISG [G51V] | -0.97 ± 0.27
15 | QGEKVEGLQAQALYPWRAKKDNHLNFNKNDVITVLEQQDMWWFGEVQGQKAWFPKSYVKLISG [G51A] | -0.408 ± 0.2
16 | QGEKVEGLQAQALYPWRAKKDNHLNFNKNDVITVLEQQDMWWFGEVQGQKSWFPKSYVKLISG [G51S] | -0.988 ± 0.3
17 | QGEKVEGLQAQALYPWRAKKDNHLNFNKNDVITVLEQQDMWWFGEVQGQKCWFPKSYVKLISG [G51C] | -0.709 ± 0.32
18 | QGEKVEGLQAQALYPWRAKKDNHLNFNKNDVITVLEQQDMWWFGEVQGQKDWFPKSYVKLISG [G51D] | -0.793 ± 0.4
19 | QGEKVEGLQAQALYPWRAKKDNHLNFNKNDVITVLEQQDMWWFGEVQGQKMWFPKSYVKLISG [G51M] | -0.938 ± 0.45
20 | QGEKVEGLQAQALYPWRAKKDNHLNFNKNDVITVLEQQDMWWFGEVQGQKEWFPKSYVKLISG [G51E] | -0.86 ± 0.29
21 | QGEKVEGLQAQALYPWRAKKDNHLNFNKNDVITVLEQQDMWWFGEVQGQKGWFPESYVKLISG [K55E] | -0.396 ± 0.34

Row | Variant | abundance fitness
22 | QGEKVEGLQAQALYPWRAKKDNHLNFNKNDVITVLEQQDMWWFGEVQGQKGWFPCSYVKLISG [K55C] | -0.16 ± 0.21
23 | QGEKVEGLQAQALYPWRAKKDNHLNFNKNDVITVLEQQDMWWFGEVQGQKGWFPGSYVKLISG [K55G] | -0.165 ± 0.24
24 | QGEKVEGLQAQALYPWRAKKDNHLNFNKNDVITVLEQQDMWWFGEVQGQKGWFPRSYVKLISG [K55R] | 0.018 ± 0.3
25 | QGEKVEGLQAQALYPWRAKKDNHLNFNKNDVITVLEQQDMWWFGEVQGQKGWFPNSYVKLISG [K55N] | -0.054 ± 0.26
26 | QGEKVEGLQAQALYPWRAKKDNHLNFNKNDVITVLEQQDMWWFGEVQGQKGWFPQSYVKLISG [K55Q] | -0.005 ± 0.34
27 | QGEKVEGLQAQALYPWRAKKDNHLNFNKNDVITVLEQQDMWWFGEVQGQKGWFPLSYVKLISG [K55L] | -0.24 ± 0.36
28 | QGEKVEGLQAQALYPWRAKKDNHLNFNKNDVITVLEQQDMWWFGEVQGQSGWFPKSYVKLISG [K50S] | -0.139 ± 0.11
29 | QGEKVEGLQAQALYPWRAKKDNHLNFNKNDVITVLEQQDMWWFGEVQGQRGWFPKSYVKLISG [K50R] | 0.056 ± 0.12
30 | QGEKVEGLQAQALYPWRAKKDNHLNFNKNDVITVLEQQDMWWFGEVQGQVGWFPKSYVKLISG [K50V] | -0.26 ± 0.12
31 | QGEKVEGLQAQALYPWRAKKDNHLNFNKNDVITVLEQQDMWWFGEVQGQPGWFPKSYVKLISG [K50P] | -0.242 ± 0.28
32 | QGEKVEGLQAQALYPWRAKKDNHLNFNKNDVITVLEQQDMWWFGEVQGQIGWFPKSYVKLISG [K50I] | -0.224 ± 0.21
33 | QGEKVEGLQAQALYPWRAKKDNHLNFNKNDVITVLEQQDMWWFGEVQGQTGWFPKSYVKLISG [K50T] | -0.108 ± 0.15
34 | QGEKVEGLQAQALYPWRAKKDNHLNFNKNDVITVLEQQDMWWFGEVQGQNGWFPKSYVKLISG [K50N] | 0.014 ± 0.16
35 | QGEKVEGLQAQALYPWRAKKDNHLNFNKNDVITVLEQQDMWWFGEVQGQWGWFPKSYVKLISG [K50W] | -0.255 ± 0.23
36 | QGEKVEGLQAQALYPWRAKKDNHLNFNKNDVITVLEQQDMWWFGEVQGQQGWFPKSYVKLISG [K50Q] | -0.308 ± 0.17
37 | QGEKVEGLQAQALYPWRAKKDNHLNFNKNDVITVLEQQDMWWFGEVQGQLGWFPKSYVKLISG [K50L] | -0.383 ± 0.14
38 | QGEKVEGLQAQALYPWRAKKDNHLNFNKNDVITVLEQQDMWWFGEVQGQHGWFPKSYVKLISG [K50H] | -0.271 ± 0.23
39 | QGEKVEGLQAQALYPWRAKKDNHLNFNKNDVITVLEQQDMWWFGEVQGQMGWFPKSYVKLISG [K50M] | -0.177 ± 0.26
40 | QGEKVEGLQAQALYPWRAKKDNHLNFNKNDVITVLEQQDMWWFGEVQGQKGWFPKSAVKLISG [Y57A] | 0.12 ± 0.11
41 | QGEKVEGLQAQALYPWRAKKDNHLNFNKNDVITVLEQQDMWWFGEVQGQKGWFPKSDVKLISG [Y57D] | -0.399 ± 0.24
42 | QGEKVEGLQAQALYPWRAKKDNHLNFNKNDVITVLEQQDMWWFGEVQGQKGWFPKSFVKLISG [Y57F] | 0.279 ± 0.34

Reference: the Human Domainome abundance scans (Beltran et al. 2025)
